Results on four molecules are retold here after US20150353923, “Method for Identifying RNA Segments Bound by RNA-Binding Proteins or Ribonucleoprotein Complexes” (Rockefeller University, published 2015).

Settings in all cases: tags: N-terminal His6 (pDEST17, E. coli); label: 32P
In data set [1] the target is T1, QKI (Quaking) (UniProt Q96PU8-9 Q96PU8-9:1-319).
T1 sequence: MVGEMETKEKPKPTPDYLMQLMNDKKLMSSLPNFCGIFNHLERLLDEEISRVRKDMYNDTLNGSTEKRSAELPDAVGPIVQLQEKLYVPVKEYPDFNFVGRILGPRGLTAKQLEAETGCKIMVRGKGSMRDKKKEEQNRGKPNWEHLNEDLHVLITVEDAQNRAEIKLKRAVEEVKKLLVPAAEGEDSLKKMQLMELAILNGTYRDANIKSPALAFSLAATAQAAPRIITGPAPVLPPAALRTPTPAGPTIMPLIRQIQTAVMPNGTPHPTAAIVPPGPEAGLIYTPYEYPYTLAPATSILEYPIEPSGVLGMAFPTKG
Briefly: EMSA; 4SU position has no significant effect on affinity; 330 mM KCl, 10 mM MgCl2, tRNA. The procedure:
(§1) Radiolabeled RNA (1 nM) was incubated with recombinant His6-QKI protein at various concentrations and 100 ng tRNA in 20 μl of 20 mM HEPES-KOH, pH 7.4, 330 mM KCl, 10 mM MgCl2, 0.1 mM EDTA and 0.01% IGEPAL CA630 (Sigma). After addition of 6 μl loading dye (40% glycerol, bromophenol blue in binding buffer), the solution was loaded onto a native 10% acrylamide gel containing 0.5×TBE, running at 200 V for 2 h at room temperature, using 0.5×TBE as running buffer. The protein-bound RNA and the free RNA were quantified using a phosphorimager.
Background: A gel shift assay detects complexes by their altered migration in electrophoresis.

The target of data set [2] is T1, QKI (Quaking). Nature of the data set: EMSA; 330 mM KCl, 10 mM MgCl2, pH 7.4, 100 ng tRNA. The procedure: as §1
Data set [3] has as its target T1, QKI (Quaking). Nature of the data set: EMSA; binding unaffected by 4SU; 330 mM KCl, 10 mM MgCl2, tRNA. The procedure: as §1

Take GUAUGCCAUUAACAAAUUCAUUAACAA (ssRNA, 4-thiouridine at position 4) [QKI oligo 4SU at U4]: the binding result in the data set with QKI (Quaking) [1] was “binds”. For GUAUGCCAUUAACAAAUUCAUUAACAA (ssRNA) [HOXD13 3'UTR QKI-site oligoribonucleotide], in the data set with QKI (Quaking) [2], the binding result is given as “binds”. GUAUGCCAUUAACAAAUUCAUUAACAA (ssRNA, 4-thiouridine at position 2) [QKI oligo 4SU at U2]: in the data set with QKI (Quaking) [1], the binding result is recorded as “binds”. Turning to GUAUGCCAUUAACAAAUUCAUUAACAA (ssRNA, 4-thiouridine at position 10 (position 3 of recognition element)) [QKI oligo 4SU at U10], in the data set with QKI (Quaking) [3], the binding result is recorded as “binds”.
